Experimental findings from US20040127407A1 (GREENVILLE HOSPITAL SYSTEM, published 2004) are described below.

This assay addresses T1, prolactin receptor (PRLR) on T-47D human breast cancer cells (human, UniProt P16471 25-622).
T1 construct: whole, on cells; Endogenous receptor on T-47D cells; also called hPRLR; PRL receptor
T1 sequence (looked up): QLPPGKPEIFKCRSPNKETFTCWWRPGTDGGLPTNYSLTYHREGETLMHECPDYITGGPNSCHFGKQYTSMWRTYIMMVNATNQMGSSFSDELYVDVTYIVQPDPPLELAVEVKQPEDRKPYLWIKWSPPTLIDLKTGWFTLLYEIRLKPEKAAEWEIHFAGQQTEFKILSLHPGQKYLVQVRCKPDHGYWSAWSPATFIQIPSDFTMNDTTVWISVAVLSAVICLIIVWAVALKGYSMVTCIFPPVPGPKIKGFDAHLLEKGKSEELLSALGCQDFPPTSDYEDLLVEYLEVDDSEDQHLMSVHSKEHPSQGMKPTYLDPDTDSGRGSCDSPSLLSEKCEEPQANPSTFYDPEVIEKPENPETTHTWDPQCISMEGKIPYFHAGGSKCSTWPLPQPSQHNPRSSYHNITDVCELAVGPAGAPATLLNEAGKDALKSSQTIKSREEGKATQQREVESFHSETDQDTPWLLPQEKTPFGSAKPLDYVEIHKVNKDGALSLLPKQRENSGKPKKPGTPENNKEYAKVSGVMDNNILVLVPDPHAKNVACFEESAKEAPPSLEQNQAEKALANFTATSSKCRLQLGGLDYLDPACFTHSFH
Nature of the assay: competitive radioreceptor binding assay on T-47D cells, 125I-hPRL tracer. On the procedure: Radioreceptor binding assays were performed as previously described (Chen et al., 1991; Appendix B). Briefly, T-47D cells will be grown in six-well tissue culture plates until 90% confluent (˜10⁵ cells/well). Monolayers of cells were starved in serum-free RPMI-1640 medium for 2h. The cells were then incubated at room temperature for two hours in serum-free RPMI-1640 containing 8×10⁴ cpm ¹²⁵I hPRL (Specific Activity=30 μCi/μg; NEN Dupont, Boston, Mass.) with or without hPRL, hPRL-G129R, endostatin, or GEFP at various concentrations. Cells were then washed three times in serum-free RPMI-1640 and solubilized in 0.5 ml of 0.1N NaOH/1% SDS, and the bound radioactivity was determined by a Gamma counter (ICN Biomedical, model 4/600plus; Costa Mesa, Calif.).

B1: hPRL-G129R (ligand)
chain: MLPICPGGAARCQVTLRDLFDRAVVLSHYIHNLSSEMFSEFDKRYTHGRGFITKAINSCHTSSLATPEDKEQAQQMNQKDFLSLIVSILRSWNEPLYHLVTEVRGMQEAPEAILSKAVEIEEQTKRLLERMELIVSQVHPETKENEIYPVWSGLPSLQMADEESRLSAYYNLLHCLRRDSHKIDNYLKLLKCRIIHNNNC
notes: also called hPRLA; prolactin antagonist
As to B1, the binding result is given as “binds”.

B2: G129R-endostatin fusion protein (GEFP) (other)
chain: MLPICPGGAARCQVTLRDLFDRAVVLSHYIHNLSSEMFSEFDKRYTHGRGFITKAINSCHTSSLATPEDKEQAQQMNQKDFLSLIVSILRSWNEPLYHLVTEVRGMQEAPEAILSKAVEIEEQTKRLLERMELIVSQVHPETKENEIYPVWSGLPSLQMADEESRLSAYYNLLHCLRRDSHKIDNYLKLLKCRIIHNNNCGSHSHRDFQPVLHLVALNSPLSGGMRGIRGADFQCFQQARAVGLAGTFRAFLSSRLQDLYSIVRRADRAAVPIVNLKDELLFPSWEALFSGSEGPLKPGARIFSFDGKDVLRHPTWPQKSVWHGSDPNGRRLTESYCETWRTEAPSATGQASSLLGGRLLGQSAASCHHAYIVLCIENSFMTASK
notes: The C-terminus of G129R is fused to the N-terminus of endostatin; E. coli product with an extra Met at the N-terminus; also called hPRL-G129R-Endo fusion protein
In the case of B2, the binding result was “binds”.

B3: human prolactin (hPRL) (ligand, UniProt P01236 29-227, looked up)
chain: LPICPGGAARCQVTLRDLFDRAVVLSHYIHNLSSEMFSEFDKRYTHGRGFITKAINSCHTSSLATPEDKEQAQQMNQKDFLSLIVSILRSWNEPLYHLVTEVRGMQEAPEAILSKAVEIEEQTKRLLEGMELIVSQVHPETKENEIYPVWSGLPSLQMADEESRLSAYYNLLHCLRRDSHKIDNYLKLLKCRIIHNNNC
As to B3, the binding result was “binds”.
